Source: PMC8856988

Key:
[1] = target: Skeletal muscle myosin (rabbit) (rabbit); assay: BLI; SkM immobilised on Octet Red Amine Reactive Second-Generation Biosensor; FXI or PK in solution; 30 mM Hepes, pH 7.4, 0.01% Tween-20, 0.1% PEG, 50 mM NaCl, 30 °C
[2] = target: Skeletal muscle myosin (rabbit) (rabbit); assay: ELISA; SkM immobilised on microtiter plate; diluted pooled plasma (endogenous FXI) in 30 mM Hepes, pH 7.4, 130 mM NaCl, 2 h, room temperature; bound FXI detected with anti-FXI mAb AHXI-5061, calculated from the curve of purified FXI; apparent
[3] = target: Skeletal muscle myosin (rabbit) (rabbit); assay: ELISA; SkM (10 μg/ml, sodium bicarbonate pH 9.3) immobilised on microtiter plate, blocked with 0.5% BSA; purified FXI 0–10 nM in 30 mM Hepes, pH 7.4, 130 mM NaCl, 2 h, room temperature; bound FXI detected with anti-FXI mAb AHXI-5061 and HRP-goat antimouse; apparent

Skeletal muscle myosin (rabbit) (rabbit), sequence (Q28641 whole entry, chain 1 of 3): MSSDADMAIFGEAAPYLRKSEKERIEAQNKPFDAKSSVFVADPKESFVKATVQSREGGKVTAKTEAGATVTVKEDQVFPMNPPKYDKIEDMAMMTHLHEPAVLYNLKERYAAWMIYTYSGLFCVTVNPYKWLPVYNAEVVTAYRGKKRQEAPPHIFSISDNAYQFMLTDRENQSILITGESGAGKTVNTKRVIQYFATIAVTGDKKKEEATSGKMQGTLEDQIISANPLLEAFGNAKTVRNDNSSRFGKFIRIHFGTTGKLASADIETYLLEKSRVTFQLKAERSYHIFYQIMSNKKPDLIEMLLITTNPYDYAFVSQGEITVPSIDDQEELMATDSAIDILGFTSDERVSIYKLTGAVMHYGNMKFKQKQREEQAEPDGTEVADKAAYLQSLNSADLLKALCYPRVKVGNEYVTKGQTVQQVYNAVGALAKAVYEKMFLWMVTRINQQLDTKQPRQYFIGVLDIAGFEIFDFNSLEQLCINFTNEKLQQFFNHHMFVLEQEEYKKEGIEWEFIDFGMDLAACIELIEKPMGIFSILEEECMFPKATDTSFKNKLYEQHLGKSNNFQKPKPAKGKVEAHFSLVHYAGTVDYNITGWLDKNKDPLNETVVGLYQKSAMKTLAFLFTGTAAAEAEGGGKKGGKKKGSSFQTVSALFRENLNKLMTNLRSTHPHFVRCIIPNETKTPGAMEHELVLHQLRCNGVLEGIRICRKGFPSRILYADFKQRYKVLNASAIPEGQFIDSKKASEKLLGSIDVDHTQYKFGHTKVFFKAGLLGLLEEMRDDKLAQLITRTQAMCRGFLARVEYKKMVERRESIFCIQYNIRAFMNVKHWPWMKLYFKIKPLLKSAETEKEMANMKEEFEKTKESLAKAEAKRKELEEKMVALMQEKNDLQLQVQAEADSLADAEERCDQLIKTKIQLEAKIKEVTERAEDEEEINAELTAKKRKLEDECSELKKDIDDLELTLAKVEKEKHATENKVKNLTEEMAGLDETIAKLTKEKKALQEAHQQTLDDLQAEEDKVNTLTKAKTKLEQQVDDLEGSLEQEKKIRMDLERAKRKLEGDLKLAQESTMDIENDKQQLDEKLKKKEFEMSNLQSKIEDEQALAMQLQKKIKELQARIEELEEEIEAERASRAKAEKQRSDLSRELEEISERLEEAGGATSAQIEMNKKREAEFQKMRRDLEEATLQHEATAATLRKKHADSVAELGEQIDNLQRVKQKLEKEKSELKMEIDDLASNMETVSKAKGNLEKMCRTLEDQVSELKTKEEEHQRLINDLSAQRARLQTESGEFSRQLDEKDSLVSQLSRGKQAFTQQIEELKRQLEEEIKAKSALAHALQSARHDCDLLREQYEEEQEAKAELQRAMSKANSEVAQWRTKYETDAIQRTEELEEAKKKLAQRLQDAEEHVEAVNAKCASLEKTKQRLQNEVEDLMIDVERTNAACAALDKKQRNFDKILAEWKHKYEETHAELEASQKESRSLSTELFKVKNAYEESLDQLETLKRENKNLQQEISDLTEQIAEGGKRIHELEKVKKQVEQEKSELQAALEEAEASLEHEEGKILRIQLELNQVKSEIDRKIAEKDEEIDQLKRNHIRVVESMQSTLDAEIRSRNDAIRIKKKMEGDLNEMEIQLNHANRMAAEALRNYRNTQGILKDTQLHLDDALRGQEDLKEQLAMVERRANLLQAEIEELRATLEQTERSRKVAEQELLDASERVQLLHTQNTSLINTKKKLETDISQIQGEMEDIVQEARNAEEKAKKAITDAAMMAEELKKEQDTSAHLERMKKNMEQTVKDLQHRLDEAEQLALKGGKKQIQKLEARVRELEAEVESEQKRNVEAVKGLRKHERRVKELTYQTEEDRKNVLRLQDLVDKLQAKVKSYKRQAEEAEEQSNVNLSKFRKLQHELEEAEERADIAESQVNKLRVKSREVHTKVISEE
Skeletal muscle myosin (rabbit) (rabbit), sequence (P02602 2-192, chain 2 of 3, further chain): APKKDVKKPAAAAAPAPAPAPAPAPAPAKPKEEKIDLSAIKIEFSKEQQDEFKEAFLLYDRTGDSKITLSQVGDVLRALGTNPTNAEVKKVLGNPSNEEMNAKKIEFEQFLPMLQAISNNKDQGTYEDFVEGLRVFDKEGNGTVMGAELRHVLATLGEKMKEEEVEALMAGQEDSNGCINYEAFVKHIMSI
Skeletal muscle myosin (rabbit) (rabbit), sequence (P02608 2-170, chain 3 of 3, further chain): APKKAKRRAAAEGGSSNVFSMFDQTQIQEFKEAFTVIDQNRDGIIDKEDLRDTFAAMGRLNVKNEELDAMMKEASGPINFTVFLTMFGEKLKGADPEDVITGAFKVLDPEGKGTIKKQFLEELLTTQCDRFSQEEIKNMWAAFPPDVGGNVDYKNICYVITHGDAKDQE

Kd [1]: 0.2 nM
koff [1]: 0.000795 s⁻¹
kon [1]: 3.87e+06 M⁻¹ s⁻¹
Kd [2]: 0.7 nM
Kd [3]: 1.7 nM
Substance: Coagulation factor XI (natural protein)
